In the DeepSol protein solubility set:

test: soluble on expression in E. coli; label from the status in PepcDB or PDB records

Sequence | soluble on expression in E. coli
MAPLKRRKVSAPTGNENTPRSTRSIRHKREDPRGKMKPLATSTRTSSVNKKKKNDDDYENFYSGENTITTMKPVVFPKKPVIFEHGYGIEDDIEDEIDDEELDDEEYEESGNGNEDEVEEEVGVEEQEIENNFAYKKVKSEISCSPFLKEHSVHSVLTNNRAKTGTIDSKAGRTAYRKQKLREGTCCSQSNEATGDSTDRSSTSAGFDVFQHLQNRAVQKTMIEQLESAVRNQDVMEMGNVVKKGLENGTLSEIQIEEFCKHTTRPNFSILQFVQALRQSTEDEKESIQIAQMMMFKMQDPKDGNYTALAANVHTLTSKISKQLNAGCIVKRTLTMNHTISQADGFPTCNLTDIYNSELLIGGDAVSQLSNFYMVALKTMLEPSYKIWAFTYRPSCVRRVDRHFQELPQKVTTAIIEVAFDIVGVYLPVELSYGSIDREHEFIKTLGEGAELEVQRRRDERITVFKNAVEALGKAMNNLRTYHFDIAKGALFNCNKPSYCEHHLKWGQVRKFREQHQRMETSPEEVIRFATGQRNEHDVSAAGRSVKDSTH | not soluble
AHHHHHHGSGVPIGEIIPRKEIELENLYGKKIAIDALNAIYQFLSTIRQKDGTPLMDSKGRITSHLSGLFYRTINLMEAGIKPVYVFDGEPPEFKKKELEKRREAREEAEEKWREALEKGEIEEARKYAQRATRVNEMLIEDAKKLLELMGIPIVQAPSEGEAQAAYMAAKGSVYASASQDYDSLLFGAPRLVRNLTITGKRKLPGKNVYVEIKPELIILEEVLKELKLTREKLIELAILVGTDYNPGGIKGIGLKKALEIVRHSKDPLAKFQKQSDVDLYAIKEFFLNPPVTDNYNLVWRDPDEEGILKFLCDEHDFSEERVKNGLERLKKAIKSGKQSTLESWFKR | soluble
MIRVCNQIGIPYYAVNFEKQYYEKVFQYFLDEYKAGRTPNPDVLCNKEIKFKAFLEHALSLGADYLATGHYARVDRSGGKVRMLRGIDENKDQTYFLNQLTEDTLSKVMFPIGELQKSRVREIAKEAELATATKKDSTGICFIGERNFKTFLSQYLPAQPGDMMTMDGEVKGRHDGLMYYTIGQRHGLGIGGSGEPWFAVGKDLEKNILYVDQGFHNPLLYSDKITATNISWVRSDIMKGEEISCTAKFRYRQEDHKVTVRMTGEGEAEVIFDEQVRAVTPGQAVVFYDGEECLGGGTIDDVYKDGTKLWYV | not soluble
MKTKSPALSGKLTDTELRTLRIFMAVVHYSGFTPAALELNVSRSAVSIAMADLEKRLSLRLCERGRAGFSLTTEGREVYRSTRQLFSALDQFRIQINAIHFNLKGELNIGITDNLVTMPQMRITSALRELNRLGPDVQINIQMIPPNEIISGVLDGQLHTGVIPVQKHYEGLEYLLLYEERSSLYCGQEHELFCRHDSELSPSMLKQYNGVLPAYDQTSEIKALHHELQLSASATDREGVAFLILTGRYIGYLPDHYAHRWVKEGVMRAILPANMSYLTPFATITKKGAPSNLVLENYLEQLKLASTTAGG | not soluble
MRVAYVLSSPRAASHKLGQMILPQLEAGTHGVEVVGIFFFDDNTLVLQKGNPIGERLAKVAKEKGILLMMCDLCALERGLAEGEPRWCTPEGEGRKTPGTCRVSPHVVEGVEVGCFPDLYRALAGRVDQVITL | soluble
MGSDKIHHHHHHMSIRIGISGWRYARWRGTFYPTGLAQRRELAYAGRCFPSVEINGSFYSLQRPESYQSWHDETPDDFVFAVKGPRFVTHMKRLRDCEQALANFFASGVLRLGEKLGPILWQLPPTLRFDDAVLDAFLSSLPRDTEAALALARKRDTTLMHGRTALSIDRKRPLRHALEMRHPSFCDPSCMKLLRKHKVGVVVADTAGKFPYLEDVTADFVYLRLHGDAQLYASGYSDHALDRWGERIAAWAAGGEPSDAQRVGPRASKRARRDVYCYFDNDMKVHAPFDARGLMQRLDLPTDCPAREEVV | not soluble
ATHYSVADRWGNAVSVTYTINASYGSAASIDGAGFLLNNEMDDFSIKPGNPNLYGLVGGDANAIEANKRPLSSMSPTIVLKNNKVFLVVGSPGGSRIITTVLQVISNVIDYNMNISEAVSAPRFHMQWLPDELRIEKFGMPADVKDNLTKMGYQIVTKPVMGDVNAIQVLPKTKGSVFYGSTDPRKEF | soluble
MAHHHHHHMRRSSSCLYKIPKNTGVAPRFDTWNEKYEPWEHLKRMGRLAGTGFYIPPEWYNHFRMFPPINHNFQQEKTLNPHNVSEPTQDDTDYLSVERIALRDELARKSRLLASEGMRYYNVFWIRKPLDRMERHYYELERKGVAHSVAIKRVLQMFYDELTVKKRVAAIQAEEAKLSGKYISMREATVLMGVLTQLQKEQLTPHQVTLLAKEQREKAQAGEAFAATVERSTETVADAAKDAAEGDEVMSADSLAELLSTEADLDDSSPSISYKVTIHETEHDSVKQLQELALDHTGKSDWYTGASPVLHMEEAMPAKRTPASKKTES | not soluble
MKLERQKLLAKVAYLYYMEGKSQSEIANELGIYRTTISRMLAKAREEGLVRIEISDFNPEIFQLESYFKSKYHLKDIEIVSSRKDSDTSEIEKDLAHVAAAMIRKKIKENDKVGIAWGRTLSKVVEAMRPHPVSQVSFVPLAGGPSHINARYHVNTLVYEMSRRFQGSCTFINATLVQENANLAKGILTSKYFEGLMDNWEKLDVAIVGVGGKPKSNEQQWLDLLNQDDFQCLDEEAAVGEITCRFFNHSGDPVNQHLAKRTIGITLEQLQKVPNRIAVAHGNYKAAALLAVLKKGYINHLVTDFSTALNILRLDKDTFVDTIYQKS | not soluble
MDSEQINVNLDIGAKAVMLARRAAAAKLNNEKLPEVPDDPIFHEKHGVFTTINTYPDNQLRGCIGFPEPYYELGEGIIKSSIYAATDDPRFDPMEPDELNRVTFELSILTVPQEVTVNPEERPKAITVGKDGIIAVYNGASGLLLPQVATEYRMSAEEFLEALCEKAGLWQGCWKYKKVKISKFQAIVFGEIEPNGKVEQRAAALEHHHHHH | soluble
MGSDKIHHHHHHMSIDYSQKIPNNVNLADDRALQRALEHWQPAFLDWWRDMGPEGSHNFDVYLRTAVSVDPSGWAHFEHVKMPDYRWGIFLQPADPARQIHFGEHKGEAAWQDVPGEHRANLRRIIVTQGDTEPASVEQQRHLGLTAPSLYDLRNLFQVNVEEGRHLWAMVYLLHRYFGRDGREEAEALLDRRSGDQDNPRILGAFNERTPDWLSFFMFTYFTDRDGKFQLCALAESGFDPLARTTRFMLTEEAHHMFVGESGVSRVIQRTCEVMRERDIRDPADVRAAGVIDLETIQRYLNFHYSVTIDLFGADQSSNAATFYSAGLKGRFEEGKRTDDHVLKSDVYRVLEVRDGQLGEREVPMLNALNEVLRDDYIRDSIGGVARWNKVIEKHGIPFKLTVPHKAFNRKIGTLSNVHVSPTGELLTEAQWQANERNWLATEEDRAYVASLMGRVTEPGKYANWIAPPAVGVNRQPMDFEYVRFN | not soluble
MPRPRVLLLGDPARHLDDLWSDFQQKFEVIPANLTTHDGFKQALREKRYGDFEAIIKLAVENGTESYPWNADLISHLPSSLKVFAAAGAGFDWLDLDALNERGVAFANSRGAGDTATSDLALYLILSVFRLASYSERAARTGDPETFNRVHLEIGKSAHNPRGHVLGAVGLGAIQKEIARKAVHGLGMKLVYYDVAPADAETEKALGAERVDSLEELARRSDCVSVSVPYMKLTHHLIDEAFFAAMKPGSRIVNTARGPVISQDALIAALKSGKLLSAGLDVHEFEPQVSKELIEMKHVTLTTHIGGVAIETFHEFERLTMTNIDRFLLQGKPLLTPAGKVFAPSSAA | soluble
SPASGPGPRRVQRRAWPPDKEQEKEKKSVICVEGNIASGKTTCLEFFSNATDVEVLTEPVSKWRNVRGHNPLGLMYHDASRWGLTLQTYVQLTMLDRHTRPQVSSVRLMERSIHSARYIFVENLYRSGKMPEVDYVVLSEWFDWILRNMDVSVDLIVYLRTNPETCYQRLKKRCREEEKVIPLEYLEAIHHLHEEWLIKGSLFPMAAPVLVIEADHHHMERMLELFEQNRDRILTPENRKHCP | soluble
RPVWYGDPISTSTSHRDLMLVVDLSYSMSQEDMQSGQQMVDRLTAVKQVLSEFIAKREGDRIGLILFADHAYLQTPLTLDRQTVANQLNQTVLKLIGTQTAIGEGIGLATKTFIDSDAPQRVMILLSDGSNTAGVLDPLEAANIAKQYNTTIYTVGVGAGEMVVKDFLFSRKVNTAQDLDEKTLQTIATTTGGHYFRARNQQDLQNIYDTINQLEPISQSN | not soluble
MGSDKIHHHHHHVKFFVIGDVTVDHLYHLDRLPAPGEEVAPTRATMKPGGAGGTISVTLARLGHSVTLAARVGDDPFAEYALASVRESGVLQAAIQIDPEHLTSTITVMQTPDGQRAMISDGAANRQLDPAKLKKKDIEGADALIVSAYSLTEGPQREYTLKAIETAKKAKKPVPVFIDLGTGAVNKVGTDLIENVIGADYLTLNQHELLALTDTTSISAALAQLGDAGARRVIVKVGRMGSIVWTPTETELVDPIKPEGRVVDSTGAGDTFTAAFAHAVLTGHSLPQAARIGNAAGALAATRVGAQARPITLADLEAALAR | not soluble
MSDTPKYTQDQVIAIKNRILEALETVIDPELGIDVVNLGLIYEIRFNDNGYTEIDMTLTTMGCPLADLLTDYIHDALQDVPEVTKTEVKLVWYPAWTVDKMSRYARIALGIR | not soluble
MGSDKIHHHHHHMTTIFIEKATILDAEKLTEIMTRTFDEEEKRWLCGQGDVIDYNIQPPGYSSVEMMRYSIEELDCYKVIMDGKIIGGIIVTISGKSYGRIDRIFVEPVYQGKGIGSYVIKLIEEEYPSIRIWDLETSSRQLNNHHFYKKMGYETIFKSEDEYCYVKRITVESAEENLIKNKDMKNSQYENCNLANTEYYQVNLKNSSFVGSNMMNMKMSNCNVRQSNFRNINFRNSSYADLNLSGSKFNFVTLGGVQFKDTSLGEDKDPISFNRCDLEGSTISNSNLKNMDIENCDITGMKINGIPIEKLLALYNKVKS | not soluble
MGAVNKDVFATGAGQVDPAKVLSPGLVYDATTEDYLKFIQGTGMDLGMEGLGTTQARDMNVPSFALGNLAGKIEVTRTLTALTPGTYRASVNVPGVNVKVTPSVLTFGAPGEKKTFKVQFENNNAALGKFAMGSLNWQGANKTVTSPIAVRPQSVIALEHHHHHH | not soluble
MTKSQQKVSSIEKLSNQEGIISALAFDQRGALKRMMAEHQSETPTVEQIEQLKVLVSEELTQYASSILLDPEYGLPASDARNNDCGLLLAYEKTGYDVNAKGRLPDCLVEWSAKRLKEQGANAVKFLLYYDVDDTEEINIQKKAYIERIGSECVAEDIPFFLEVLTYDDNIPDNKSAEFAKVKPRKVNEAMKLFSEDCFNVDVLKVEVPVNMNFVEGFSEGEVVYTKEEAAQHFRDQDAATHLPYIYLSAGVSAELFQDTLKFAHDSGAQFNGVLCGRATWSGAVKVYIEEGEQAAREWLRTVGFKNIDDLNTVLKTTATSWKNK | soluble
MKGRWAKYVATGVMLAMLAACSSKPTDRGQQYKDGKFTQPFSLVNQPDAVGAPINAGDFAEQVDQIRSASPRLYTNQSNVYNAVQNWLRSGGDTRTMRQFGIDAWQMEGTDNYGNVQFTGYYTPVVQARHTRQGAFQYPIYSMPPKRGRLPSRAQIYAGALSDKYILAWSNSLMDNFIMDVQGSGYIDFGDGSPLNFFSYAGKNGWPYRSIGKVLIDRGEVKKEDMSMQAIREWGEKHSEAEVRELLEQNPSFVFFKPQSFAPVKGASAVPLIGRASVASDRSIIPPGTTLLAEVPLLDNNGKFSGQYELRLMVALDVGGAIKGQHFDIYQGIGPDAGHRAGWYNHYGRVWVLKSAPGAGNVFSG | soluble
